Abundance fitness data for 43 variants are collected here from the Human Domainome abundance scans (Beltran et al. 2025).

± gives the uncertainty stated by the source.

B1: Formin-binding protein 4, residues 200 to 261; numbered along this chain, Q8N3X1 (parent)
chain: SGWQYDTQCSLAGVGIEMGDWQEVWDENTGCYYYWNTQTNEVTWELPQYLATQVQGLQHYQP

In the series the parent is B1. Put plainly: abundance fitness (aPCA) (normalised: wild type 0, dead -1); higher = more abundant; growth selection in yeast, the domain comes from the species named. The following applies: Homo sapiens.
On to SGWQYDTQCSLAGVGIEMGDWQEVWDENTGCYYYWNTQTNEVTWELPQYLATTVQGLQHYQP [Q53T], for which the abundance fitness was -0.606 ± 0.12.

Consider SGWQYDTQCSLAGVGIEMGDWQEVWDENTGCYYYWNTQTNEVTWELPQYLATKVQGLQHYQP [Q53K], for which the abundance fitness is -0.188 ± 0.13.

As to SGWQYDTQCSLAGVGIEMGDWQEVWDENTGCYYYWNTQTNEVTWELPQYLATSVQGLQHYQP [Q53S], the abundance fitness was -0.765 ± 0.13.

On to SGWQYDTQCSLAGVGIEMGDWQEVWDENTGCYYYWNTQTNEVTWELPQYLATIVQGLQHYQP [Q53I], for which the abundance fitness was -0.611 ± 0.19.

As to SGWQYDTQCSLAGVGIEMGDWQEVWDENTGCYYYWNTQTNEVTWELPQYLATRVQGLQHYQP [Q53R], the abundance fitness is -0.215 ± 0.086.

Take SGWQYDTQCSLAGVGIEMGDWQEVWDENTGCYYYWNTQTNEVTWELPQYLATCVQGLQHYQP [Q53C]: the abundance fitness was -0.738 ± 0.27.

Regarding SGWQYDTQCSLAGVGIEMGDWQEVWDENTGCYYYWNTQTNEVTWELPQYLATGVQGLQHYQP [Q53G], the abundance fitness was -0.688 ± 0.12.

Consider SGWQYDTQCSLAGVGIEMGDWQEVWDENTGCYYYWNTQTNEVTWELPQYLATQQQGLQHYQP [V54Q], for which the abundance fitness is -0.754 ± 0.16.

Regarding SGWQYDTQCSLAGVGIEMGDWQEVWDENTGCYYYWNTQTNEVTWELPQYLATQKQGLQHYQP [V54K], the abundance fitness was -0.589 ± 0.14.

In the case of SGWQYDTQCSLAGVGIEMGDWQEVWDENTGCYYYWNTQTNEVTWELPQYLATQAQGLQHYQP [V54A], the abundance fitness was -0.336 ± 0.088.

For the variant SGWQYDTQCSLAGVGIEMGDWQEVWDENTGCYYYWNTQTNEVTWELPQYLATQYQGLQHYQP [V54Y], the abundance fitness was -0.274 ± 0.17.

SGWQYDTQCSLAGVGIEMGDWQEVWDENTGCYYYWNTQTNEVTWELPQYLATQEQGLQHYQP [V54E]: the abundance fitness is -0.741 ± 0.15.

For SGWQYDTQCSLAGVGIEMGDWQEVWDENTGCYYYWNTQTNEVTWELPQYLATQDQGLQHYQP [V54D], the abundance fitness is -0.644 ± 0.16.

As to SGWQYDTQCSLAGVGIEMGDWQEVWDENTGCYYYWNTQTNEVTWELPQYLATQTQGLQHYQP [V54T], the abundance fitness is -0.403 ± 0.11.

In the case of SGWQYDTQCSLAGVGIEMGDWQEVWDENTGCYYYWNTQTNEVTWELPQYLATQMQGLQHYQP [V54M], the abundance fitness stood at 0.055 ± 0.094.

In the case of SGWQYDTQCSLAGVGIEMGDWQEVWDENTGCYYYWNTQTNEVTWELPQYLATQHQGLQHYQP [V54H], the abundance fitness was -0.716 ± 0.19.

Consider SGWQYDTQCSLAGVGIEMGDWQEVWDENTGCYYYWNTQTNEVTWELPQYLATQPQGLQHYQP [V54P], for which the abundance fitness is -0.741 ± 0.16.

On to SGWQYDTQCSLAGVGIEMGDWQEVWDENTGCYYYWNTQTNEVTWELPQYLATQFQGLQHYQP [V54F], for which the abundance fitness is -0.214 ± 0.099.

Take SGWQYDTQCSLAGVGIEMGDWQEVWDENTGCYYYWNTQTNEVTWELPQYLATQLQGLQHYQP [V54L]: the abundance fitness was -0.094 ± 0.066.

SGWQYDTQCSLAGVGIEMGDWQEVWDENTGCYYYWNTQTNEVTWELPQYLATQGQGLQHYQP [V54G]: the abundance fitness is -0.546 ± 0.07.

SGWQYDTQCSLAGVGIEMGDWQEVWDENTGCYYYWNTQTNEVTWELPQYLATQRQGLQHYQP [V54R]: the abundance fitness was -0.625 ± 0.086.

As for SGWQYDTQCSLAGVGIEMGDWQEVWDENTGCYYYWNTQTNEVTWELPQYLATQSQGLQHYQP [V54S], the abundance fitness is -0.603 ± 0.092.

On to SGWQYDTQCSLAGVGIEMGDWQEVWDENTGCYYYWNTQTNEVTWELPQYLATQNQGLQHYQP [V54N], for which the abundance fitness was -0.48 ± 0.19.

Consider SGWQYDTQCSLAGVGIEMGDWQEVWDENTGCYYYWNTQTNEVTWELPQYLATQIQGLQHYQP [V54I], for which the abundance fitness was 0.1 ± 0.093.

Consider SGWQYDTQCSLAGVGIEMGDWQEVWDENTGCYYYWNTQTNEVTWELPQYLATQVTGLQHYQP [Q55T], for which the abundance fitness was -0.18 ± 0.092.

For SGWQYDTQCSLAGVGIEMGDWQEVWDENTGCYYYWNTQTNEVTWELPQYLATQVLGLQHYQP [Q55L], the abundance fitness was -0.184 ± 0.064.

For the variant SGWQYDTQCSLAGVGIEMGDWQEVWDENTGCYYYWNTQTNEVTWELPQYLATQVFGLQHYQP [Q55F], the abundance fitness is -0.018 ± 0.17.

On to SGWQYDTQCSLAGVGIEMGDWQEVWDENTGCYYYWNTQTNEVTWELPQYLATQVPGLQHYQP [Q55P], for which the abundance fitness was -0.647 ± 0.11.

For SGWQYDTQCSLAGVGIEMGDWQEVWDENTGCYYYWNTQTNEVTWELPQYLATQVEGLQHYQP [Q55E], the abundance fitness is -0.268 ± 0.099.

On to SGWQYDTQCSLAGVGIEMGDWQEVWDENTGCYYYWNTQTNEVTWELPQYLATQVKGLQHYQP [Q55K], for which the abundance fitness is -0.173 ± 0.087.

As for SGWQYDTQCSLAGVGIEMGDWQEVWDENTGCYYYWNTQTNEVTWELPQYLATQVMGLQHYQP [Q55M], the abundance fitness is -0.102 ± 0.085.

For the variant SGWQYDTQCSLAGVGIEMGDWQEVWDENTGCYYYWNTQTNEVTWELPQYLATQVIGLQHYQP [Q55I], the abundance fitness is -0.321 ± 0.17.

As to SGWQYDTQCSLAGVGIEMGDWQEVWDENTGCYYYWNTQTNEVTWELPQYLATQVRGLQHYQP [Q55R], the abundance fitness is -0.12 ± 0.064.

SGWQYDTQCSLAGVGIEMGDWQEVWDENTGCYYYWNTQTNEVTWELPQYLATQVSGLQHYQP [Q55S]: the abundance fitness is -0.177 ± 0.077.

As for SGWQYDTQCSLAGVGIEMGDWQEVWDENTGCYYYWNTQTNEVTWELPQYLATQVHGLQHYQP [Q55H], the abundance fitness was -0.482 ± 0.26.

On to SGWQYDTQCSLAGVGIEMGDWQEVWDENTGCYYYWNTQTNEVTWELPQYLATQVCGLQHYQP [Q55C], for which the abundance fitness turned out to be 0.121 ± 0.18.

Consider SGWQYDTQCSLAGVGIEMGDWQEVWDENTGCYYYWNTQTNEVTWELPQYLATQVVGLQHYQP [Q55V], for which the abundance fitness is -0.173 ± 0.083.

For the variant SGWQYDTQCSLAGVGIEMGDWQEVWDENTGCYYYWNTQTNEVTWELPQYLATQVAGLQHYQP [Q55A], the abundance fitness is -0.012 ± 0.084.

Consider SGWQYDTQCSLAGVGIEMGDWQEVWDENTGCYYYWNTQTNEVTWELPQYLATQVDGLQHYQP [Q55D], for which the abundance fitness was -0.005 ± 0.19.

As to SGWQYDTQCSLAGVGIEMGDWQEVWDENTGCYYYWNTQTNEVTWELPQYLATQVWGLQHYQP [Q55W], the abundance fitness turned out to be 0.039 ± 0.081.

For SGWQYDTQCSLAGVGIEMGDWQEVWDENTGCYYYWNTQTNEVTWELPQYLATQVYGLQHYQP [Q55Y], the abundance fitness was -0.389 ± 0.16.

For SGWQYDTQCSLAGVGIEMGDWQEVWDENTGCYYYWNTQTNEVTWELPQYLATQVNGLQHYQP [Q55N], the abundance fitness is -0.186 ± 0.19.

With SGWQYDTQCSLAGVGIEMGDWQEVWDENTGCYYYWNTQTNEVTWELPQYLATQVQGCQHYQP [L57C], the abundance fitness was -0.305 ± 0.12.
